US20180282719A1 (published 2018)
Where a chain is given by its changes, count along the chain named.

T1: recombinant soluble human IL-6 receptor (SR344) (human, UniProt P08887 20-344, biotinylated (sites not given) where immobilized via streptavidin or used in phage ELISA)
T1 construct: also called soluble IL-6 receptor; membrane-type IL-6 receptor (when biotinylated and immobilized on the chip)
T1 sequence (looked up): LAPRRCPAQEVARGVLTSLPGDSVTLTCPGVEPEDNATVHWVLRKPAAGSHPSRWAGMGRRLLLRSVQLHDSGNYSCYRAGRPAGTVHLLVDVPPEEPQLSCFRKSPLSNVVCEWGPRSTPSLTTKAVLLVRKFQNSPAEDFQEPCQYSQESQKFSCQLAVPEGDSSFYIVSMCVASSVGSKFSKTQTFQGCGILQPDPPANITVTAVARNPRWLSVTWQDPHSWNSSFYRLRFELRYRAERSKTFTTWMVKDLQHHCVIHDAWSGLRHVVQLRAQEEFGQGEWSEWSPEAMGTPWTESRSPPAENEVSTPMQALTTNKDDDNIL

B1: humanized PM1 antibody (wild type, WT) (antibody, human IgG1, kappa, V domains shown)
VH: QVQLQESGPGLVRPSQTLSLTCTVSGYSITSDHAWSWVRQPPGRGLEWIGYISYSGITTYNPSLKSRVTMLRDTSKNQFSLRLSSVTAADTAVYYCARSLARTTAMDYWGQGSLVTVSS
VL: DIQMTQSPSSLSASVGDRVTITCRASQDISSYLNWYQQKPGKAPKLLIYYTSRLHSGVPSRFSGSGSGTDFTFTISSLQPEDIATYYCQQGNTLPYTFGQGTKVEIKR
notes: IgG1; also called WT-IgG1; wild type humanized anti-IL-6 receptor antibody
B2: H3pI/L73 (antibody, IgG1, V domains shown)
VH: QVQLQESGPGLVKPSETLSLTCAVSGHSISHDHAHSWVRQPPGEGLEWIGYISYSGITNYNPSLKGRVTISRDTSKNQFSLKLSSVTAADTAAYYCARSLARTTAMDYWGEGTLVTVSS
VL: DIQMTQSPSSLSASVGDSVTITCQASQHISSHLNWYQQKPGKAPELLIYYGSHLHSGVPSRFSGSGSGTDFTFTISSLEAEDAATYYCGQGNRLPYTFGQGTKVEIE
notes: tested as IgG1; also called H3pI/L73-IgG1; H3pl/L73
B3: H170/L82 (antibody, IgG1, V domains shown)
VH: B2 VH with D32H, N59H, S63H, S99V, T103I, Y108H
VL: B2 VL with H28D
notes: expressed and purified as IgG (IgG1); also called H170/L82-IgG1
B4: Fv4-IgG1 (antibody)
heavy: not shown
light: DIQMTQSPSSLSASVGDSVTITCQASTDISSHLNWYQQKPGKAPELLIYYGSHLLSGVPSRFSGSGSGTDFTFTISSLEAEDAATYYCGQGNRLPYTFGQGTKVEIERTVAAPSVFIFPPSDEQLKSGTASVVCLLNNFYPREAKVQWKVDNALQSGNSQESVTEQDSKDSTYSLSSTLTLSKADYEKHKVYACEVTHQGLSSPVTKSFNRGEC
notes: VH3-IgG1 / VL3-CK

biological target: T1, recombinant soluble human IL-6 receptor …; experiment: SPR Biacore T100, antibody on protein A/G chip, SR344 analyte, pH 5.8, 37 C
Protocol: (§1) Kinetic analyses of antigen-antibody reactions at pH 5.8 and pH 7.4 were carried out using a Biacore™ T100 surface plasmon resonance system (GE Healthcare) on the four antibodies: humanized PM1 antibody (WT) and H3pI/L73, CLH5/L73, and H170/L82 produced in Examples 2 and 4 (buffer: 10 mM MES (pH 7.4 or pH 5.8), 150 mM NaCl, and 0.05% TWEEN® 20 (polyoxyethelene sorbitan monolaurate)). Various antibodies were bound onto a sensor chip immobilized with recomb-protein A/G (Pierce) by amine coupling. SR344 adjusted to concentrations of 9.8 to 400 nM was injected to the chip as an analyte. […] All the measurements were carried out at 37° C. Association rate constants kₐ (1/Ms) and dissociation rate constants kd (1/s) were calculated using Biacore T100™ Evaluation Software (GE Healthcare), and dissociation constants KD (M) were calculated on the basis of those values (Table 5). Moreover, the ratio of the affinities at pH 5.8 and pH 7.4 were calculated for each clone to evaluate pH-dependent binding. All the measurements were carried out at 37° C.

Kd | koff | kon | Binder
5 nM | 0.0038 s⁻¹ | 760000 M⁻¹ s⁻¹ | B1
57 nM | 0.0097 s⁻¹ | 170000 M⁻¹ s⁻¹ | B2
640 nM | 0.017 s⁻¹ | 26000 M⁻¹ s⁻¹ | B3

biological target: T1, recombinant soluble human IL-6 receptor …; experiment: SPR Biacore T100, antibody on protein A/G chip, SR344 analyte, pH 7.4, 37 C
Protocol: as §1

Kd | koff | kon | Binder
2.1 nM | 0.001 s⁻¹ | 510000 M⁻¹ s⁻¹ | B1
1.4 nM | 0.00074 s⁻¹ | 540000 M⁻¹ s⁻¹ | B2
1.6 nM | 0.0011 s⁻¹ | 680000 M⁻¹ s⁻¹ | B3

biological target: T1, recombinant soluble human IL-6 receptor …; experiment: SPR Biacore T100, antibody on protein A/G chip, SR344 analyte, 37 C, ratio of pH 5.8 to pH 7.4
Protocol: as §1

KD (pH 5.8)/KD (pH 7.4) | Binder
2.4 | B1
41.3 | B2
394 | B3

biological target: T1, recombinant soluble human IL-6 receptor …; experiment: SPR Biacore T100, antibody captured by anti-IgG gamma chain F(ab)2, SR344 analyte, pH 7.4, 37 C
Protocol: (§2) Kinetic analyses of antigen-antibody reactions at pH 7.4 were carried out on the four types of antibodies, i.e., the humanized PM1 antibody (wild type: WT), and […], H3pI/L73-IgG1, Fv2-IgG1, and Fv4-IgG1 constructed in Examples 2 and 10, by using a Biacore T100™ surface plasmon resonance system (GE Healthcare) (buffer: 10 mM MES (pH 7.4), 150 mM NaCl, 0.05% TWEEN® 20 (polyoxyethelene sorbitan monolaurate)). Each antibody was bound on a sensor chip on which an anti-IgG γ chain specific F(ab)₂ (Pierce) was immobilized by amine coupling, and then, SR344 adjusted to a concentration of 9.8 to 40 nM was injected thereto as an analyte. The association to and dissociation from SR344 were observed on a real-time basis for the pH-dependent-binding clones. All the measurements were carried out at 37° C. Association rate constants kₐ (1/Ms) and dissociation rate constants kd (1/s) were calculated using Biacore T100™ Evaluation Software (GE Healthcare), and dissociation constants KD (M) were calculated on the basis of those values (Table 7).

Kd | koff | kon | Binder
1.4 nM | 0.001 s⁻¹ | 720000 M⁻¹ s⁻¹ | B4
2.7 nM | 0.0011 s⁻¹ | 400000 M⁻¹ s⁻¹ | B1
1.4 nM | 0.00059 s⁻¹ | 410000 M⁻¹ s⁻¹ | B2

biological target: T1, recombinant soluble human IL-6 receptor …; experiment: as above; remark: another data set of the same source
Protocol: as §2
The association to and dissociation from SR344 were observed on a real-time basis using the same method as Example 10 for the eleven types of antibodies, humanized PM1 antibody (wild type: WT) and H3pI/L73-IgG1, Fv1-M71, Fv1-M73, Fv2-IgG1, Fv3-M71, Fv3-M73, Fv4-IgG1, Fv4-IgG2, Fv4-M58, and Fv4-M73, constructed as described above. The association rate constants kₐ (1/Ms) and dissociation rate constants kd. (1/s) were calculated by analysis in the same manner, and the dissociation constants KD (M) were calculated on the basis of those values (Table 11).

Kd | koff | kon | Binder
1.4 nM | 0.001 s⁻¹ | 720000 M⁻¹ s⁻¹ | B4
2.7 nM | 0.0011 s⁻¹ | 400000 M⁻¹ s⁻¹ | B1
1.4 nM | 0.00059 s⁻¹ | 410000 M⁻¹ s⁻¹ | B2

biological target: T1, recombinant soluble human IL-6 receptor …; experiment: SPR Biacore T100, biotinylated SR344 on streptavidin chip (model of membrane-type IL-6 receptor), antibody as analyte, 37 C
Protocol: Binding to the membrane-type IL-6 receptor was evaluated by evaluating binding to the IL-6 receptor immobilized on a sensor chip. SR344 was biotinylated in accordance with a method known among persons with ordinary skill in the art, and the biotinylated SR344 was immobilized on the sensor chip via streptavidin using the affinity between streptavidin and biotin. All the measurements were carried out at 37° C. The mobile phase buffer was 10 mM MES (pH 5.8), 150 mM NaCl and 0.05% TWEEN® 20 (polyoxyethelene sorbitan monolaurate).
The pH-dependently-binding clones were injected under the condition of pH 7.4 to allow them to bind to SR344, and then, the pH-dependent dissociation of each clone at the pH of the mobile phase, pH 5.8, was observed. The results are shown in FIG. 21 (results for Fv1-M71, Fv1-M73, Fv3-M71, and Fv3-M73 are shown in FIG. 21, while results for other clones are shown in FIGS. 17 and 19). Analyses were carried out in the same manner as in Example 10 and the pH dependencies of the dissociation rate constants of all of the eleven types of clones are shown in Table 12.

kd (pH 5.8)/kd (pH 7.4) | Binder
5.56 | B4
1 | B1
2.59 | B2
